Experimental data reported in PMC6535546, “Novel Carbapenemases FLC-1 and IMI-2 Encoded by an Enterobacter cloacae Complex Isolated from Food Products” (Antimicrobial Agents and Chemotherapy, 2019).

Experiments:
[1] = target: T1, FLC-1 (FRI-like carbapenemase-1) (Enterobacter cloacae, UniProt A0A2I5JVQ1); assay: nitrocefin hydrolysis inhibition; format: biochemical
T1 construct: gene bla; plasmid p3442-FLC-1 gene cloned in pBAD-FLC, expressed in E. coli LMG194; unpurified soluble (cytoplasmic) fraction; about 33 kDa
Experimental: nitrocefin hydrolysis inhibition on FLC-1 (FRI-like carbapenemase-1) | the inhibition of FLC-1 enzymatic activity by clavulanic acid was tested

[2] = tested on: C[C@@H](O)[C@H]1C(=O)N2C(C(=O)O)=C(SCCN=CN)C[C@H]12; assay: cells, lysate or membranes; format: biochemical, Enterobacter cloacae; details: PBS, 0.01% Triton X-100, pH 7.4, 23°C, cytoplasmic fraction of E. coli LMG194 producing FLC-1
[3] = tested on: CO/N=C(\C(=O)N[C@@H]1C(=O)N2C(C(=O)O)=C(COC(C)=O)CS[C@H]12)c1csc(N)n1; assay: cells, lysate or membranes; format: biochemical, Enterobacter cloacae; details: PBS, 0.01% Triton X-100, pH 7.4, 23°C, cytoplasmic fraction of E. coli LMG194 producing FLC-1
[4] = tested on: CC1(C)S[C@@H]2[C@H](NC(=O)[C@H](N)c3ccccc3)C(=O)N2[C@H]1C(=O)O; assay: cells, lysate or membranes; format: biochemical, Enterobacter cloacae; details: PBS, 0.01% Triton X-100, pH 7.4, 23°C, cytoplasmic fraction of E. coli LMG194 producing FLC-1
[5] = tested on: C[C@@H](O)[C@H]1C(=O)N2C(C(=O)O)=C(S[C@@H]3CN[C@H](C(=O)Nc4cccc(C(=O)O)c4)C3)[C@H](C)[C@H]12; assay: cells, lysate or membranes; format: biochemical, Enterobacter cloacae; details: PBS, 0.01% Triton X-100, pH 7.4, 23°C, cytoplasmic fraction of E. coli LMG194 producing FLC-1
[6] = tested on: C[C@@H](O)[C@H]1C(=O)N2C(C(=O)O)=C(S[C@@H]3CN[C@H](C(=O)N(C)C)C3)[C@H](C)[C@H]12; assay: cells, lysate or membranes; format: biochemical, Enterobacter cloacae; details: PBS, 0.01% Triton X-100, pH 7.4, 23°C, cytoplasmic fraction of E. coli LMG194 producing FLC-1

T1 sequence (A0A2I5JVQ1 entry or part of it): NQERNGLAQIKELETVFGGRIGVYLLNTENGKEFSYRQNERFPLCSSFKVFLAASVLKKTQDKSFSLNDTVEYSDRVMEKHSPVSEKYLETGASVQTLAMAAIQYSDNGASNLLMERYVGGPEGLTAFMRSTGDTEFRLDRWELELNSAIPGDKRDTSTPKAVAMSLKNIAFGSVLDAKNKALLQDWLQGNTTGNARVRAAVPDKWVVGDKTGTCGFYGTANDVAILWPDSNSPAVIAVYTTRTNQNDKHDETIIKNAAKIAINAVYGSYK

O=C(O)[C@H]1/C(=C/CO)O[C@@H]2CC(=O)N21 [clavulanic acid]
IC50 [1]: 1970 ± 90 nM

FLC-1 (FRI-like carbapenemase-1) (Enterobacter cloacae)
Km [2]: 177.2 ± 12.5 µM | Km [3]: 377.1 ± 110.6 µM | Km [4]: 1,649 ± 174.2 μM | Km [5]: 29.6 ± 11.7 µM | Km [6]: 32.4 ± 9.3 µM
